Experimental data taken from paper PMC8671946.

Biological target: HER2/PD-L1 BsAb (humanized bispecific IgG1 subclass antibody targeting both HER2 and PD-L1)
Test: BLI; Octet RED96; antibody (10 ug/ml) immobilised on Protein A biosensors; 6xHis-tagged antigens two-fold serially titrated from 100 nM; PBS with 0.02% Tween 20 and 0.1% BSA, room temperature

Kd: 6.36 nM
Substance: human epidermal growth factor receptor 2 (HER2), recombinant, 6xHis-tagged (from UniProt P04626 23-652)
